Measured values: patent US20080152645A1 (ARMAGEN TECHNOLOGIES, published 2008)

Target: T1, Aβ^1-40 amyloid peptide (human, UniProt P05067 672-711)
T1 construct: domain: Aβ^1-40; Plated on 96-well plates in ELISA and IRMA; also called Aβ^1-40 peptide; Aβ^1-40 aggregates
Test: ELISA on plated Aβ^1-40, COS cell medium, detection with biotinylated 9E10 MAb
From the text: FIG. 29. […] The mAβScFv binds to the amyloid peptide, and the 9E10 anti-c-myc MAb binds to the […] epitope fused to the carboxyl terminus of the protein (FIG. 9). The 9E10 MAb is biotinylated, which enables detection with a conjugate of streptavidin and peroxidase. Medium conditioned by COS cells that were transfected with pCD-mAβScFv produced a high signal in the assay, whereas medium from COS cells exposed only to Lipofectamine (LIPO) produced no signal.
The binding of the mAβScFv to the Aβ¹⁻⁴⁰ amyloid peptide was verified with a specific ELISA. The Aβ¹⁻⁴⁰ amyloid peptide was plated in 96-well plates, followed by the addition of the media conditioned by COS cells transfected with the pCD-mAβScFv plasmid and Lipofectamine-2000. The anti-A, ScFv contains a C-terminal 10-amino acid c-myc epitope, which is recognized by the 9E10 MAb (FIG. 29A). The 9E10 MAb is biotinylated, which enables quantitation of the […] binding to Aβ¹⁻⁴⁰ by a peroxidase detection system and A492 readings (FIG. 29A).

binding result: binds
B1: mAβScFv, murine single chain Fv antibody against the Aβ peptide, secreted by COS cells transfected with pCD-mAβScFv (scFv)
scFv: QVQLQQSGAELVKPGATVKLSCKASGYSFNSHYIYWVKQRPGQGLEWIGEINPSNGAMNFNEKFKNKATLTVDKSSSTAYMQLSSLTSEDSAVYYCVRDPTSYWGQGTLVTVSAAKTTPKLEEGEFSEARVDIVMTQTPLSLPVSLGDQASISCRSSQSLVHSYGNTYLHWYLQKPGQSPKLLIYKVSNRFSGVPDRFSGSGSGTDFTLKISRVEAEDLGVYFCSQSTHVPYTFGGGTKLEIKRADAAAAGSEQKLISEEDL
notes: Tested as COS cell conditioned medium; No His tag in this construct; VL has Ile at position 2; also called anti-Aβ ScFv; anti-mAβScFv
